Data on 4 molecules can be found in paper PMC12583610, “Allosteric control of the bacterial ClpC/ClpP protease and its hijacking by antibacterial peptides” (The EMBO Journal, 2025).

One assay concerns the target Mtb ClpC1 (Mycobacterium tuberculosis, UniProt P9WPC9).
Assay [1] addresses Staphylococcus aureus ClpC wild-type (Staphylococcus aureus) (UniProt Q2G0P5). The assay is described as follows: cross-linking.
Assay [2] has the same target. The assay is described as follows: mass photometry.
The target in assay [3] is Staphylococcus aureus ClpC-F436A (Staphylococcus aureus) (UniProt Q2G0P5). The assay is described as follows: cross-linking.
Assay [4] has the same target. As to the kind of experiment: dynamic light scattering.
The target of assay [5] is T1, Staphylococcus aureus ClpP (Staphylococcus aureus), Q2G036.
T1 chain: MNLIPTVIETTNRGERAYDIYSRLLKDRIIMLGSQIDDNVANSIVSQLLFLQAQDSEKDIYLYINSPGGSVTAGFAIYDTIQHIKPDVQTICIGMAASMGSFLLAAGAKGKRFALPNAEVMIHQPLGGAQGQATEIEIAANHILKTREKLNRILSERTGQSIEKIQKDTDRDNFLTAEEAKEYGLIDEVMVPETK
As to the kind of experiment: negative stain EM. The following applies: remark: other sources report otherwise.

For the molecule `Nc1ncnc2c1ncn2[C@@H]1O[C@H](COP(=O)(O)OP(=O)(O)OP(=O)(O)O)[C@@H](O)[C@H]1O` [ATP], at Mtb ClpC1, the “coupled PK/LDH NADH ATPase assay” value is “ATPase activities of Mtb ClpC1-WT and indicated mutants were determined”.
For orientation: stoichiometry N means the number of molecules, sites or subunits per partner or assembly. For “Staphylococcus aureus ClpC wild-type (from UniProt Q2G0P5) (natural protein)”, the stoichiometry N came out at 6 in assay [1] and 2 in assay [2].
Take “Staphylococcus aureus ClpC-F436A (from UniProt Q2G0P5) (natural protein)”: the stoichiometry N in assay [3] and in assay [4] was 6 throughout.

B1: Staphylococcus aureus ClpP, Q2G036 1-195 (enzyme)
chain: MNLIPTVIETTNRGERAYDIYSRLLKDRIIMLGSQIDDNVANSIVSQLLFLQAQDSEKDIYLYINSPGGSVTAGFAIYDTIQHIKPDVQTICIGMAASMGSFLLAAGAKGKRFALPNAEVMIHQPLGGAQGQATEIEIAANHILKTREKLNRILSERTGQSIEKIQKDTDRDNFLTAEEAKEYGLIDEVMVPETK
In assay [5], B1 came in with a stoichiometry N of 14.
